Values of other authors, collected in PMC5538147.

Target: UvrD (Escherichia coli) (UniProt P03018)

Kd: 470 nM
Substance: UvrD (from UniProt P03018)
